Data published in patent US20210395344A1 (TWIST BIOSCIENCE, published 2021).
Residue numbers refer to the chain shown, from its start.

B1: SARS-CoV-2 variant 1-2 (antibody, V domains shown)
VH: EVQLLESGGGLVQPGGSLRLSCAASGFTFSSQAMSWVRQAPGKGLEWVSAISGSGGGTYYADSVKGRFTISRDNSKNTLYLQMNSLRAEDTAVYYCAKDRRFGEFDPWGQGTLVTVSS
VL: QSALTQPASVSGSPGQSITISCTGTSSGVGSYNLVSWYQQHPGKAPKLMIYEGIKRPSGVSNRFSGSKSGNTASLTISGLQAEDEADYYCCSYAGSSSFVVFGGGTKLTVL
B2: SARS-CoV-2 variant 1-3 (antibody, V domains shown)
VH: B1 VH
VL: B1 VL with T25I, G28D, I54T
B3: SARS-CoV-2 variant 1-4 (antibody, V domains shown)
VH: B1 VH
VL: B1 VL with G28D, S31T, I54S, K55Q
B4: SARS-CoV-2 variant 1-5 (antibody, V domains shown)
VH: B1 VH
VL: B1 VL with G53A, I54S, S97Y, S98T, V100A
B5: SARS-CoV-2 variant 1-30 (antibody, V domains shown)
VH: EVQLLESGGGLVQPGGSLRLSCAASGFTFSSYAMTWVRQAPGKGLEWVSAISGSGGSTFYADSVKGRFTISRDNSKNTLYLQMNSLRAEDTAVYYCTRPPYGDYGDYWGQGTLVTVSS
VL: B1 VL with S27R, G28D, I54T, S97R, S98T, F99P
B6: SARS-CoV-2 variant 1-31 (antibody, V domains shown)
VH: B5 VH with T35N
VL: B1 VL with G28D, S31K, I54S, K55Q, S97R, S98T, F99P
B7: SARS-CoV-2 variant 1-41 (antibody, V domains shown)
VH: EVQLLESGGGLVQPGGSLRLSCAASGFTFSSYDMSWVRQAPGKGLEWVSVISGSGGSTYYADSVKGRFTISRDNSKNTLYLQMNSLRAEDTAVYYCAKGPLVGWYFDLWGQGTLVTVSS
VL: QSALTQPASVSGSPGQSITISCTGTSSDIGSYNLVSWYQQHPGKAPKLMIYEGTKRPSGVSNRFSGSKSGNTASLTISGLQAEDEADYYCCSYAGSRTYVFGGGTKLTVL
B8: SARS-CoV-2 variant 1-39 (antibody, V domains shown)
VH: B5 VH with T35Y, S49T, D103Y
VL: B7 VL
B9: SARS-CoV-2 variant 1-43 (antibody, V domains shown)
VH: B1 VH with S49T, R100T, R101I, D106Y
VL: B7 VL
B10: SARS-CoV-2 variant 1-44 (antibody, V domains shown)
VH: B1 VH with S49T, R101K
VL: B7 VL
B11: SARS-CoV-2 variant 1-45 (antibody, V domains shown)
VH: EVQLLESGGGLVQPGGSLRLSCAASGFTFSSYAMSWVRQAPGKGLEWVSIISGSAGSTYYADSVKGRFTISRDNSKNTLYLQMNSLRAEDTAVYYCARDGYKYCLWGQGTLVTVSS
VL: B7 VL
B12: SARS-CoV-2 variant 1-46 (antibody, V domains shown)
VH: EVQLLESGGGLVQPGGSLRLSCAASGFTFTSYAMSWVRQAPGKGLEWVSAISGSGGSTYYADSVKGRFTISRDNSKNTLYLQMNSLRAEDTAVYYCANDTSDFCFGYWIFDPWGQGTLVTVSS
VL: B7 VL
B13: SARS-CoV-2 variant 1-48 (antibody, V domains shown)
VH: B12 VH with T30S, Y32H, S35Y, G55A, N98H, S101K, C104W, F105S, W108C
VL: B7 VL
B14: SARS-CoV-2 variant 1-20 (antibody, V domains shown)
VH: EVQLLESGGGLVQPGGSLRLSCAASGITFSSYAMSWVRQAPGKGLEWVSGISGSGGSTYYADSVKGRFTISRDNSKNTLYLQMNSLRAEDTAVYYCANHGSGTIFGVVIAKYYFDYWGQGTLVTVSS
VL: B1 VL with G28D, S31H, I54T
B15: SARS-CoV-2 variant 1-49 (antibody, V domains shown)
VH: EVQLLESGGGLVQPGGSLRLSCAASGFTFSSYAMYWVRQAPGKGLEWVSAISGSAGSTYYADSVKGRFTISRDNSKNTLYLQMNSLRAEDTAVYYCARDTNDFWGQGTLVTVSS
VL: B7 VL
B16: SARS-CoV-2 variant 1-50 (antibody, V domains shown)
VH: B15 VH with A33D, Y35S, A55G, S57T, D99G, T100P, N101L
VL: B7 VL
B17: SARS-CoV-2 variant 1-35 (antibody, V domains shown)
VH: EVQLLESGGGLVQPGGSLRLSCAASGFTFSNYAMSWVRQAPGKGLEWVSDISGSGGSTYYADSVKGRFTISRDNSKNTLYLQMNSLRAEDTAVYYCVKGTIPIFGVIRSAFDYWGQGTLVTVSS
VL: B1 VL with G28D, N33S, I54T, S97Y, F99Y

Target: T1, COVID S1 RBM Fc fusion (Antigen 2) (SARS-CoV-2, UniProt P0DTC2 437-508)
T1 construct: domain: RBM
Assay: phage ELISA

In order of rising “specificity ELISA, fold over background” value:
1. B10  0.8 fold over background
2. B13  0.8 fold over background
3. B14  0.8 fold over background
4. B15  0.8 fold over background
5. B16  0.8 fold over background
6. B12  0.9 fold over background
7. B9  1 fold over background
8. B11  1 fold over background
9. B3  1.1 fold over background
10. B6  1.2 fold over background
11. B7  1.2 fold over background
12. B8  1.3 fold over background
13. B4  1.4 fold over background
14. B5  1.4 fold over background
15. B2  1.5 fold over background
16. B17  1.6 fold over background
17. B1  1.7 fold over background

In order of rising “specificity ELISA, percent binding relative to Acro S1” value:
1. B6  3.8%
2. B16  5.9%
3. B8  6.7%
4. B17  7.3%
5. B10  7.6%
6. B11  8.3%
7. B5  8.5%
8. B9  14.5%
9. B14  14.5%
10. B12  19.8%
11. B7  26.3%
12. B13  30.3%
13. B15  78.8%
14. B2  91.9%
15. B4  92%
16. B1  93.5%
17. B3  105%

Target: S1-Fc (SARS-CoV-2, UniProt P0DTC2 16-685)
Assay: phage ELISA

In order of falling “specificity ELISA, fold over background” value:
1. B6  15.7 fold over background
2. B5  5.6 fold over background
3. B1  1.7 fold over background
4. B2  1.5 fold over background
5. B4  1.2 fold over background
6. B3  0.9 fold over background

In order of rising “specificity ELISA, percent binding relative to Acro S1” value:
1. B5  33.3%
2. B6  51.6%
3. B4  82.9%
4. B3  90.8%
5. B2  91.2%
6. B1  95.4%

Target: T2, SARS-CoV-2 S1 (subunit 1) protein (SARS-CoV-2, UniProt P0DTC2 16-685)
T2 construct: also called biotinylated SARS-CoV-2 S1
Assay: phage ELISA

In order of falling “screening ELISA (Avg), fold over background” value:
1. B5  29.5 fold over background
2. B1  24.2 fold over background
3. B2  23.9 fold over background
4. B6  20.7 fold over background
5. B3  20.6 fold over background
6. B4  20.6 fold over background
7. B7  18.1 fold over background
